Measured values as given in patent US20110177065A1.

Target: IL-1 receptor (human) (UniProt P14778)
Assay: cell-based or functional assay

Chain of UniProt P14778 (P14778 18-569): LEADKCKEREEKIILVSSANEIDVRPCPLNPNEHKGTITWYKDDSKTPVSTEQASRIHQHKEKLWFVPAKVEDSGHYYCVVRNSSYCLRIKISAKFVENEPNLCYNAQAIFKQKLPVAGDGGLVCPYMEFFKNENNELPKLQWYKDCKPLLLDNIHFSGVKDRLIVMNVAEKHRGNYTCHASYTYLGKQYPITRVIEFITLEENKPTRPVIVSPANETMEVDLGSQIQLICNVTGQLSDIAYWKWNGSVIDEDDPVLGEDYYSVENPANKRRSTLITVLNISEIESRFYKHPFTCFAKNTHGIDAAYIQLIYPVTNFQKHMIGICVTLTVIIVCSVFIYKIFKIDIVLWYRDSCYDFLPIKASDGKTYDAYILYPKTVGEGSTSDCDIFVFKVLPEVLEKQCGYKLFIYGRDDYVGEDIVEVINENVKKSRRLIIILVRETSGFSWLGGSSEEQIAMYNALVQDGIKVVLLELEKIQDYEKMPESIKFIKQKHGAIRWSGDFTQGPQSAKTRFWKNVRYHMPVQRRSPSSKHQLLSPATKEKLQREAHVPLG

“IL-1 receptor antagonist (IL-1Ra) (from UniProt P18510 26-177) (ligand)” was tested, and the antiviral activity of IFN-gamma (endpoint of 50% protection from viral cytopathic effect, human WISH cells) was 125 IU/ml and the level of IL-18BP in HaCat culture supernatants after IFN-gamma (ELISA) was 0.35 ng/mL.
